Laboratory results from patent US20150232562A1 (Ablynx, published 2015).
Substitutions are numbered along the chain they refer to.

B1: 13F81A/1-128 (VHH)
VHH: EVQLVESGGGLVQAGGSLRLSCAASGRTFSRYAMGWFRQAPGKEREFVAAISWTGGSSYYGDSVKGRSTISRENAENTVYLQMNSLKPEDTAVYYCAANSDEFYSGTLKLQSRMVEYWGQGTQVTVSS
notes: C-term myc-His6 tag
B2: 11B102/1-118 (VHH)
VHH: EVQLVESGGGLVQAGGSLRLSCAASGGIFSSHAISWFRQAPGKAREFVAAINWSGSHRDYADSAKGRFTISRDNAKKTAYLQMNSLRPEDTAVYYCVGGWKTDEYVKWGQGTQVTVSS
notes: C-term myc-His6 tag
B3: 21A41/1-120 (VHH)
VHH: EVQLVESGGGLVQAGGSLRLSCAASGRIFSNYAWSWFRQAPGKERGFVAAINWSGGYTDYADSVKGRFTISRDNTKNTVYLQMNSLKPEDTAVYYCRPGWVTPSYEYGNWGQGTQVTVSS
notes: C-term myc-His6 tag
B4: 14H101/1-128 (VHH)
VHH: EVQLVESGGGLVQAGGSLRLSCAASGRTFISSPMGWFRQAPGKEREVVAATTRSGGLPYYSDSVKGRFTISRDNAKNTVDLQMSSLKPEDTAAYYCAADQKYGMSYSRLWLVSEYEYWGQGTQVTVSS
notes: C-term myc-His6 tag
B5: 12E21/1-115 (VHH)
VHH: EVQLVESGGGLVQPGGSLRLSCAASGSIDSIHVVGWYRKAPGKQREVVAYIGTAGATHYADSVKGRFTISRDNAENLVYLQMNNLKPEDTAVYYCSAGWGDSAYWGQGTQVTVSS
notes: C-term myc-His6 tag
B6: 13F21/1-123 (VHH)
VHH: EVQLVESGGGLVQSGGSLRLSCVASGTIVSINATSWYRQAPGNQRELVATIIGDGRTHYADSVKDRFTISRDAAANLVYLQMNSLKPSDTAIYSCNANGIESYGWGNRHFNYWTVGTQVTVSS
notes: C-term myc-His6 tag
B7: 12E33/1-119 (VHH)
VHH: EVQLVESGGGMVQAGGSLRLSCAASGLTLSNYGMGWFRQAPGKEREFVSSINWSGTHTYDADFVKGRFIISRDNAKNTVYLQINSLKPEDTAVYYCAAGGWGTGRYNYWGQGTQVTVSS
notes: C-term myc-His6 tag
B8: 13G11/1-122 (VHH)
VHH: EVQLVESGGGLVQAGGSLRLSCAASGRTFISNYAMGWFRQAPGKEREFVATINWSGSHSDYADSVKGRFTISRDNAKNTVYLQMNNLKSEDTAVYYCAPGWGTAPLSTSVYWGQGTQVTVSS
notes: C-term myc-His6 tag
B9: 118N121_A6_2_OK/1-123 (VHH)
VHH: EVQLVESGGGLVQAGGSLRLSCVASGRTFSGYSVGWFRQSPGKEREFVGGINWSGRTYYVDSVKGRFTFSRDNAKNTVYLQMNSLKPEDTAIYLCAVDRFNTIANLPGEYDYWGQGTQVTVSS
notes: C-term myc-His6 tag
B10: 118N121_B8_1_OK/1-135 (VHH)
VHH: EVQLVESGGGLVQDGGSLRLSCAASGQLANFASYAMGWFRQAPGKAREFVAAIRGSGGSTYIADPARSTYYADFVKGRFTISRDNAKNTVYLQMNSLKPEDTAVYYCACETFNSISNLPGEYDYWGQGTQVTVSS
notes: C-term myc-His6 tag
B11: 118N121_A2_2_OK/1-124 (VHH)
VHH: KVQLVESGGGLVQAGGSLRLSCAASGRTFSNYSVGWFRQAPGKEREFVAALSKDGARTYYAASVKGRFTIYRDNAKNVVYLQMSVLNGEDTAVYYCAADHFTFMSNLPSEYDYWGQGTQVTVSS
notes: C-term myc-His6 tag
B12: 118N121_A8_2_OK/1-124 (VHH)
VHH: EVQLVESGGGLVQAGGSLTLSCVISGLTLESHAMGWFRQAPGEEREFVATIRWSGSATFYSDSVKGRFTISRDNAKNTVYLQMNSLKPEDTAVYYCAARKIYRSLSYYGDYDSWGQGTQVTVSS
notes: C-term myc-His6 tag
B13: 118N121_B3_1_OK/1-123 (VHH)
VHH: EVQLVESGGGLVQPGGSLRLSCAASGRTFSDLALGWFRRAPGKEREHVAAISSSGVTTIYADSVRGRFTISRDEAKNTVYLEMNSLKTDDTAVYYCAARLTMATPNQSQYYYWGQGTQVTVSS
notes: C-term myc-His6 tag
B14: 118N121_A5_2_OK/1-114 (VHH)
VHH: EVQLVESGGGSVQPGGSLRLSCVASGSISSTNAMGWHRQVSGKERELVAIVTDGFTNYADFAKGRFTISRDNAKTTVYLQMNSLQPEDTARYYCRYSGIGTDNWGQGIEVTVSS
notes: C-term myc-His6 tag
B15: 118N121_A9_2_OK/1-114 (VHH)
VHH: B14 VHH with T31V, S41P, E44Q
notes: C-term myc-His6 tag
B16: 118N121_A7_1_OK/1-122 (VHH)
VHH: EVQLVESGGGLVQPGGSLRLSCAASGNIKSIDVMGWHRQAPGKERELVSDISFGGNTNYANSVKGRFTISRDNAKNTVYLQMNSLKPEDTAVYYCYADILYKTDIYYRNDFWGQGTQVTVSS
notes: C-term myc-His6 tag
B17: 118N121_A10_1_OK/1-131 (VHH)
VHH: EVQLVESGGGLVQAGGSLRLSCAASGFSFADYAIGWFRQAPGKEREGVSCIANSEGTKYYADSAQGRLPISSDNAKKTVYLQMDSLKPEDTAVYYCAALPYTICPVVVKKGAVYYGVDDYWGKGTQVTVSS
notes: C-term myc-His6 tag
B18: 118N121_A11_1_OK/1-120 (VHH)
VHH: EVQLVESGGGLVQPGGSLRLSCAASGFPFGMYGMRWVRQAPGKGPERVSSINSDGDTTYYADSVKGRFTISRDNDENMLYLQMNSLKPEDTAVYYCATGFSDRSFAVTHKGQGTQVTVSS
notes: C-term myc-His6 tag
B19: 118N121_B7_4_OK/1-124 (VHH)
VHH: EVQLVESGGGLEQAGGSLRLSCAASGLTFRSAAMGWFRQGPGKEREFVAAISRDGAATYYTDSVKGRFTISRDNAKNTVFLQMNSLKPEDTAIYYCAADFRLARLRVADDYDYWGQGTQVTVSS
notes: C-term myc-His6 tag
B20: 118N121_B2_1_OK/1-130 (VHH)
VHH: EVQLVESGGGLVQAGGSLRLSCAASGFSLDDRAIAWFRQAPGKAREGVSCITPHHGGIIFTRESVKGRFATSSDSAKNTVYLQMHSLKPEDTAVYYCATLRTDYSINWANCQRDSLYGYWGQGTQVTVSS
notes: C-term myc-His6 tag
B21: 118N121_B7_1_OK/1-119 (VHH)
VHH: EMQLVESGGGLVQPGGSLRLSCAASGNIPPINAMAWYRQAPGNERELVAAVTSGGGTNYATSVKGRFIISRDDSKNTVDLQMNSLKPEDTAVYYCNLGGWTRTHPFDYWGQGTQVTVSS
notes: C-term myc-His6 tag
B22: 2E5 (VHH)
VHH: EVQLVESGGSLVQPGESLRLSCAASGFTFDDYAMSWVRQAPGKGLEWISSINWSGTHTDYADSVKGRFTISRNNANNTLYLQMNNLKFEDTAVYYCAKNWRDAGTTWFEKSGSAGQGTQVTVSS
notes: C-term myc-His6 tag
B23: 5F8 (VHH)
VHH: B22 VHH with E16G, M34L
notes: C-term myc-His6 tag
B24: 13B2 (VHH)
VHH: B22 VHH with E16G, T58K
notes: C-term myc-His6 tag
B25: 13D8 (VHH)
VHH: B22 VHH with E16G, S35T, P41S, I48V, A61T, N85S, F88S, R101G
notes: C-term myc-His6 tag
B26: 15F9 (VHH)
VHH: B22 VHH with E16G, S35T, I48V, A61T, D62G, N85S, F88S, E89D, R101G
notes: C-term myc-His6 tag

The binders below were run against T1, recombinant human ErbB2/Fc chimera (human, UniProt P04626 23-652) (assay: ELISA, coated ErbB2/Fc).
T1 construct: bought from R&D Systems; also called rhErbB2-Fc; rhErb2-Fc; Fc part of the bought chimera not given; not described

Row | Binder | binding result
1 | B1 | binds
2 | B2 | binds
3 | B3 | binds
4 | B4 | binds
5 | B5 | binds
6 | B6 | binds
7 | B7 | binds
8 | B8 | binds
9 | B9 | binds
10 | B10 | binds
11 | B11 | binds
12 | B12 | binds
13 | B13 | binds
14 | B14 | binds
15 | B15 | binds
16 | B16 | binds
17 | B17 | binds
18 | B18 | binds
19 | B19 | binds
20 | B20 | binds
21 | B21 | binds

Each binder was assayed against T2, Epidermal Growth Factor Receptor 2 (HER2) (human, UniProt P04626 23-1255) (assay: FMAT competition on SKBR3 cells, periplasmic extract).
T2 construct: whole, on cells; the cell line is named under assay; also called ErbB-2; ERBB2

Row | Binder | % blocking of Herceptin binding [%]
22 | B22 | > 90
23 | B23 | > 90
24 | B24 | > 90
25 | B25 | > 90
26 | B26 | > 90
